Measurements from IntAct's records for PubMed 21145460.

B1: Regulator of nonsense transcripts 1 (Homo sapiens), Q92900-2 (parent)
chain: MSVEAYGPSSQTLTFLDTEEAELLGADTQGSEFEFTDFTLPSQTQTPPGGPGGPGGGGAGGPGGAGAGAAAGQLDAQVGPEGILQNGAVDDSVAKTSQLLAELNFEEDEEDTYYTKDLPIHACSYCGIHDPACVVYCNTSKKWFCNGRGNTSGSHIVNHLVRAKCKEVTLHKDGPLGETVLECYNCGCRNVFLLGFIPAKADSVVVLLCRQPCASQSSLKDINWDSSQWQPLIQDRCFLSWLVKIPSEQEQLRARQITAQQINKLEELWKENPSATLEDLEKPGVDEEPQHVLLRYEDAYQYQNIFGPLVKLEADYDKKLKESQTQDNITVRWDLGLNKKRIAYFTLPKTDSDMRLMQGDEICLRYKGDLAPLWKGIGHVIKVPDNYGDEIAIELRSSVGAPVEVTHNFQVDFVWKSTSFDRMQSALKTFAVDETSVSGYIYHKLLGHEVEDVIIKCQLPKRFTAQGLPDLNHSQVYAVKTVLQRPLSLIQGPPGTGKTVTSATIVYHLARQGNGPVLVCAPSNIAVDQLTEKIHQTGLKVVRLCAKSREAIDSPVSFLALHNQIRNMDSMPELQKLQQLKDETGELSSADEKRYRALKRTAERELLMNADVICCTCVGAGDPRLAKMQFRSILIDESTQATEPECMVPVVLGAKQLILVGDHCQLGPVVMCKKAAKAGLSQSLFERLVVLGIRPIRLQVQYRMHPALSAFPSNIFYEGSLQNGVTAADRVKKGFDFQWPQPDKPMFFYVTQGQEEIASSGTSYLNRTEAANVEKITTKLLKAGAKPDQIGIITPYEGQRSYLVQYMQFSGSLHTKLYQEVEIASVDAFQGREKDFIILSCVRANEHQGIGFLNDPRRLNVALTRARYGVIIVGNPKALSKQPLWNHLLNYYKEQKVLVEGPLNNLRESLMQFSKPRKLVNTINPGARFMTTAMYDAREAIIPGSVYDRSSQGRPSSMYFQTHDQIGMISAGPSHVAAMNIPIPFNLVMPPMPPPGYFGQANGPAAGRGTPKGKTGRGGRQKNRFGLPGPSQTNLPNSQASQDVASQPFSQGALTQGYISMSQPSQMSQPGLSQPELSQDSYLGDEFKSQIDVALSQDSTYQGERAYQHGGVTGLSQY
B2: Regulator of nonsense transcripts 1 (Homo sapiens), Q92900-2 (parent)
chain: B1 chain
partner: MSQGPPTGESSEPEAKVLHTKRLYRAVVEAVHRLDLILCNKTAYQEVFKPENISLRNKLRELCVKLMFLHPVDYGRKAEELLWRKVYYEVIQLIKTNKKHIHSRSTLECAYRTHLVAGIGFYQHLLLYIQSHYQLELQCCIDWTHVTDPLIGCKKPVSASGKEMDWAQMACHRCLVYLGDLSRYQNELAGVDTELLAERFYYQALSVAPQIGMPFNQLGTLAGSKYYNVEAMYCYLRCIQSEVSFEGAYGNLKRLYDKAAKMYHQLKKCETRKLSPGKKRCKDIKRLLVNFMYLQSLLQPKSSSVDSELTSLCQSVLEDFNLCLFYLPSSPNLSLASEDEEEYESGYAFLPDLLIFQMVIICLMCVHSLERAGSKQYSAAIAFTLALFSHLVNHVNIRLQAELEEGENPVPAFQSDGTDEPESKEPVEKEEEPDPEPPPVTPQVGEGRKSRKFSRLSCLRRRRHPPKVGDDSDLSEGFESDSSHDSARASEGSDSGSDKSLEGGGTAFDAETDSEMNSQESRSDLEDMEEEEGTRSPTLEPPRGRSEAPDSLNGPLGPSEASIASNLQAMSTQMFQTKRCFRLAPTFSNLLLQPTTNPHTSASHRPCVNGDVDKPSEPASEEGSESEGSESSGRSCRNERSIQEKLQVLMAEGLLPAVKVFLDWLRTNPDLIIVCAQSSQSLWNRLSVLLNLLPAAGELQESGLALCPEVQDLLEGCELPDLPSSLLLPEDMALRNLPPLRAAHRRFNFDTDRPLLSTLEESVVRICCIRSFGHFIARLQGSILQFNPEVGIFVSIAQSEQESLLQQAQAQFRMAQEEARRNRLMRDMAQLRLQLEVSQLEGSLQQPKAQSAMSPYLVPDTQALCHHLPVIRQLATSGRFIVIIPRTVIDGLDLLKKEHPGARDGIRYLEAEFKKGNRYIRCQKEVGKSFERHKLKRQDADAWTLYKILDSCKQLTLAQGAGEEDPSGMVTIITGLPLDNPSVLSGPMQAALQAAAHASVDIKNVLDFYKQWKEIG

Variants of: B1
Details: with est1a_human SMG6, Q86US8
Sequence of est1a_human SMG6, Q86US8 (Q86US8 whole entry): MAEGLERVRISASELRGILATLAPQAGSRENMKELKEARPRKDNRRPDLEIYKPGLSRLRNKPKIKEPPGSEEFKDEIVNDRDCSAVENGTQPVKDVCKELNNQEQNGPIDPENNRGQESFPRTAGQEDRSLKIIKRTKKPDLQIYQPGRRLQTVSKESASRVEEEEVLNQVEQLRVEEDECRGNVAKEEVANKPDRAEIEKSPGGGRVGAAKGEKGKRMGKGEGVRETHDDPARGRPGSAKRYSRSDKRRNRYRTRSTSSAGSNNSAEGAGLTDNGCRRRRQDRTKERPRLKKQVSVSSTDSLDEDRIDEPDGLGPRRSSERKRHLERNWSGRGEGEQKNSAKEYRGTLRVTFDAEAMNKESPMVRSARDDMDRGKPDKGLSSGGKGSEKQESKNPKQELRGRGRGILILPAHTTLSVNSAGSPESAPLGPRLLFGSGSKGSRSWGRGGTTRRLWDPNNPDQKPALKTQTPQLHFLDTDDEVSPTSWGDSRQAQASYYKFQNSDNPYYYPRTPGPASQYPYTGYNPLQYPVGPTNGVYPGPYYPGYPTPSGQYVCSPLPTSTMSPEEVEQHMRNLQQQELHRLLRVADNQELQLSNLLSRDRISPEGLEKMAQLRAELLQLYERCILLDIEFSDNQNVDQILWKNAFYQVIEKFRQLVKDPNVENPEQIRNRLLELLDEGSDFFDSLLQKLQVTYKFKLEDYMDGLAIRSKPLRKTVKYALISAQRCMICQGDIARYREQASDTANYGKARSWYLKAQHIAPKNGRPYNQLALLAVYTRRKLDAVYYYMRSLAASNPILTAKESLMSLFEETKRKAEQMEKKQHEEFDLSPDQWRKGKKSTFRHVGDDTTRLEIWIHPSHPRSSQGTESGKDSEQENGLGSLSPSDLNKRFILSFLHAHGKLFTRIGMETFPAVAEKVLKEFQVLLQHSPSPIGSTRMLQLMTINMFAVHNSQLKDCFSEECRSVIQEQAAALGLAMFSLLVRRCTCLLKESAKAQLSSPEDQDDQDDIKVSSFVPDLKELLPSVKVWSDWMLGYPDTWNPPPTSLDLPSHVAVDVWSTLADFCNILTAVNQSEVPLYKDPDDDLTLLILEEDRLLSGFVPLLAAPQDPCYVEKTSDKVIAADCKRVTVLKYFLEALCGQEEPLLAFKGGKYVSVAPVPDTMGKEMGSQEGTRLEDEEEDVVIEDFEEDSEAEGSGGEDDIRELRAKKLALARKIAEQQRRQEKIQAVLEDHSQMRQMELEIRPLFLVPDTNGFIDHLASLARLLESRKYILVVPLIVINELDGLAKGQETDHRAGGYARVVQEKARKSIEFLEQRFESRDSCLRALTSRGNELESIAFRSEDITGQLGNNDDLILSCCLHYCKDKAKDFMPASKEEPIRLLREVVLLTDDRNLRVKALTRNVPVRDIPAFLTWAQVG

Row | effect of a mutation on the interaction | Variant
1 | increasing interaction | D636A;E637A
2 | increasing interaction | K498A

Variants of: B2
Details: with smg5_human SMG5, Q9UPR3

Row | effect of a mutation on the interaction | Variant
3 | increasing interaction | K498A
4 | increasing interaction | D636A;E637A
